Several values for one entry are separate records, joined by “and”; a condition that tells them apart may be missing. Identical values can stand only once. Primed or numbered codes have the meaning given here. Ends that are not written are not given here. FITC′ = fluorescein isothiocyanate; Ahx = NCCCCCC(=O)O
T1: human importin α3 lacking the IBB domain (hIMPα3ΔIBB) (human, UniProt O00629 59-521)
T1 construct: pET30a, His tag with TEV site; also called ΔIBB-IMPα3
T1 sequence (looked up): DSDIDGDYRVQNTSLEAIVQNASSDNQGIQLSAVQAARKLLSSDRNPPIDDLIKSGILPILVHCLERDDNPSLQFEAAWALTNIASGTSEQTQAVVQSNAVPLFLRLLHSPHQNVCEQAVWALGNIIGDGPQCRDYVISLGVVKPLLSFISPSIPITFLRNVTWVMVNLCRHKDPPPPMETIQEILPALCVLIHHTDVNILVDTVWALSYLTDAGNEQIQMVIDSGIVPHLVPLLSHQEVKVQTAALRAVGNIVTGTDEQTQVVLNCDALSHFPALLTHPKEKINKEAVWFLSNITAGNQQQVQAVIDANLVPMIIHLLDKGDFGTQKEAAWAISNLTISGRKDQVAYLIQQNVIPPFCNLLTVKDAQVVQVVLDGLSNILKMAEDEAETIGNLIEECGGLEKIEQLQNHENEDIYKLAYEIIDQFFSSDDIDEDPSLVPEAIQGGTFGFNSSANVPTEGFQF

B1: AAV6 VP1-BR FITC-tagged peptide (residues 120-172) (peptide)
peptide: {FITC′-Ahx}-QAKKRVLEPFGLVEEGAKTAPGKKRPVEQSPQEPDSSSGIGKTGQQPAKKRLN
notes: also called FITC-tagged AAV6 VP1-BR; AAV6 VP1-BR FITC peptide; source: synthetic peptide (GenScript)
B2: AAV6 VP1-BR (recombinant, residues 115-174) (domain or fragment)
chain: GRAVFQAKKRVLEPFGLVEEGAKTAPGKKRPVEQSPQEPDSSSGIGKTGQQPAKKRLNFG
notes: A TEV protease site stands upstream of the insert 'for GST-tag cleavage'; 15 residues of it are seen in the final model; also called AAV6 VP1 basic region; source: E. coli (codon optimized, pGEX4T-1), co-purified with IMPα2

How the values were obtained:
Conditions in all cases: both partners purified
[1] = biological target: T1, human importin α3 lacking the IBB …; assay: fluorescence polarisation; FITC-tagged AAV6 VP1-BR peptide at 2 nM; importin isoforms serially diluted from an upper concentration of 4.5 µM; three independent experiments
[2] = biological target: T2, human importin α5 lacking the IBB domain (hIMP5ΔIBB) (human, UniProt P52294 58-538); assay: as above
T2 construct: pET30a, His tag with TEV site; also called IMPα5; ΔIBB-IMPα5
T2 sequence (P52294 58-538, stated change not applied): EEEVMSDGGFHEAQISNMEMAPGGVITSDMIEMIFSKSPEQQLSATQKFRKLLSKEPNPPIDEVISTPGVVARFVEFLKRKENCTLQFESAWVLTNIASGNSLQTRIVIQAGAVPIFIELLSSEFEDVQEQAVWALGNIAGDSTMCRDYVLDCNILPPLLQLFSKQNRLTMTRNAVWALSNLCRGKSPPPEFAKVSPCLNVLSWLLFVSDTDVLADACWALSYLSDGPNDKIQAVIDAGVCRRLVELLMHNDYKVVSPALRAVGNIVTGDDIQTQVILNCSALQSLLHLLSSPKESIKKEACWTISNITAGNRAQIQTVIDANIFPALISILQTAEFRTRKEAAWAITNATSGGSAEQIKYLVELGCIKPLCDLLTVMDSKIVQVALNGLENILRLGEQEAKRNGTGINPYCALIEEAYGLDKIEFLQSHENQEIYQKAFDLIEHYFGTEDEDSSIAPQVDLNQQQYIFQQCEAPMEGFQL

[3] = biological target: T3, mouse importin α2 lacking residues 1-70 (IMPα2ΔIBB) (mouse, UniProt P52293 71-529); assay: as above
[4] = biological target: T4, human importin α7 lacking the IBB domain (hIMPα7ΔIBB) (human, UniProt O60684 61-536); assay: as above
T4 construct: pET30a, His tag with TEV site; also called ΔIBB-IMPα7
T4 sequence (O60684 61-536, stated change not applied): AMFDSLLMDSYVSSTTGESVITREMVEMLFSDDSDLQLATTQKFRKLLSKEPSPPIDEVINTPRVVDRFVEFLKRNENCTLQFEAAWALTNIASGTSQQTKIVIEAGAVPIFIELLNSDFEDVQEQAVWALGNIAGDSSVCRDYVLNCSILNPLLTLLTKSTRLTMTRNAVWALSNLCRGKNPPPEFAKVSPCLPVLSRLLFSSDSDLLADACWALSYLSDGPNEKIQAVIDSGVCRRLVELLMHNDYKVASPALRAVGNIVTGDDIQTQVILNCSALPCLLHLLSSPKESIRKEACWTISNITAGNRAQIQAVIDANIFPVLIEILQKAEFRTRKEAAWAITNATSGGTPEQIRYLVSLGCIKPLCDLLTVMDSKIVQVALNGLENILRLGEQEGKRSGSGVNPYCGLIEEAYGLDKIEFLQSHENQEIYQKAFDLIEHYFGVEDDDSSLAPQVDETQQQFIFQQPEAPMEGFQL

[5] = biological target: T3, mouse importin α2 lacking residues 1-70 …; assay: crystal structure; co-purified complex of AAV6 VP1-BR and IMPα2; hanging drop, 0.7 M sodium citrate, 0.01 M dithiothreitol, 0.1 M HEPES pH 7.5, 22°C; 2.3 Å

Binder | Kd [1] [nM] | Kd [2] [nM] | Kd [3] [nM] | Kd [4] | binding result [5]
B1 | 198 | 71 | 265 | 23 nM and 24 nM | –
B2 | – | – | – | – | binds

Reference: PMC11784021, “Structural basis for nuclear import of adeno-associated virus serotype 6 capsid protein” (Journal of Virology, 2024)
